Data taken from article PMC9775280, “A Simple Label-Free Aptamer-Based Electrochemical Biosensor for the Sensitive Detection of C-Reactive Proteins”.

Columns and labels:
PSA (PSA standard) = PSA (PSA standard) (UniProt P07288 25-261); assay: electrochemical aptasensor (DPV); 1 ng/mL; current below blank, attributed to physical adsorption; PBS as solvent, 100 uL sample; DPV -0.6 to 0 V, peak about -0.4 V; BSA-blocked electrode; pH, salt and assay temperature not stated; conditions: protein: commercial
[1] = molecular target: B-type brain natriuretic peptide (BNP) (UniProt P16860 103-134); assay: as above; conditions: protein: commercial
C-reactive protein (CRP) = molecular target: T1, C-reactive protein (CRP) (UniProt P02741 19-224); assay: electrochemical aptasensor (DPV); 1 ng/mL CRP; aptamer immobilized on SPE/AuNPs/GO-COOH, BSA-blocked; linear range 0.001-100 ng/mL, LOD 2.941e-4 ng/mL; PBS as solvent, 100 uL sample; DPV -0.6 to 0 V, peak about -0.4 V; BSA-blocked electrode; pH, salt and assay temperature not stated; conditions: protein: commercial; chain copies: 5
T1 sequence: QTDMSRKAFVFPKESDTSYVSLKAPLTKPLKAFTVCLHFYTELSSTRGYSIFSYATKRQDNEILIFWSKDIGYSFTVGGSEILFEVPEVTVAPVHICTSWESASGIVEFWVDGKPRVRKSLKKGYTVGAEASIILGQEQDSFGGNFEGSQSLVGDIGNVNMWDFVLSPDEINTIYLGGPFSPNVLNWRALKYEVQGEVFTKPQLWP

Sequence of B-type brain natriuretic peptide (BNP) (P16860 103-134): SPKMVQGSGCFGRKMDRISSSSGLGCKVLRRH
Sequence of PSA (PSA standard) (P07288 25-261): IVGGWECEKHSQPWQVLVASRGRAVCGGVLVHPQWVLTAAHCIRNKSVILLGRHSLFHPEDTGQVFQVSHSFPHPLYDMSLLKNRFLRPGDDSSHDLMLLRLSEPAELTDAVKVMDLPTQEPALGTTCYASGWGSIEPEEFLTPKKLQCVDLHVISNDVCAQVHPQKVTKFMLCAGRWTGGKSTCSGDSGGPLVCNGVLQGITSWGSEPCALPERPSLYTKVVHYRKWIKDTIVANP

GCCTGTAAGGTGGTCGGTGTGGCGAGTGTGTTAGGAGAGATTGC (ssDNA, 5'-NH2) [CRP aptamer]
binding result (PSA (PSA standard)): no binding | binding result [1]: no binding | binding result (C-reactive protein (CRP)): binds
